Test results reported in patent WO2023182244A1 (dated 2023).

Target: T1, HuNoV GII.2 VLP (VP1 of HuNoV GII.2 OSN201926, baculovirus-expressed virus-like particle) (human norovirus GII.2 (OSN201926), …)
T1 construct: VP1 gene cloned from HuNoV GII.2 (OSN201926), expressed by the baculovirus method as a VLP and purified by ultracentrifugation; also called HuNoV GII.2 VP1; HuNoV GII.2 VLP1
T1 chain: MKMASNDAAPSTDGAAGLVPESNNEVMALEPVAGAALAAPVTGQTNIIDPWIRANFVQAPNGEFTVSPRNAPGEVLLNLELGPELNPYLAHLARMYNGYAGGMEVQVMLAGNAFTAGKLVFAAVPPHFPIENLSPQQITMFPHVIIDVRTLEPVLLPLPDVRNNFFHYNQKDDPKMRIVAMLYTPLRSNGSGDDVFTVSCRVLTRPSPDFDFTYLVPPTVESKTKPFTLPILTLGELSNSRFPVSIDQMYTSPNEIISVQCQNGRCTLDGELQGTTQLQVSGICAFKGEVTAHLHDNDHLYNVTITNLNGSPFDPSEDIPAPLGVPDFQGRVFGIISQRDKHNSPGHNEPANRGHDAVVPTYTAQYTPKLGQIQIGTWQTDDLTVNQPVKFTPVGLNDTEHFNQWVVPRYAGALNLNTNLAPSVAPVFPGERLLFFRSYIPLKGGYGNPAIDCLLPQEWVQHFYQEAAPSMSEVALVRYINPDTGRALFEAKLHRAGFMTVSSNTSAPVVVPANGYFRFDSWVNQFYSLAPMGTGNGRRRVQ
Test: ELISA of E. coli periplasm fractions on HuNoV GII.2 VLP; clones selected by binding to the antigen

Row | Binder | binding result
1 | YGI-1F4 (VHH, Llama VHH expressed in E. coli from pMEK222 (FLAG tag and His tag), purified on Co resin; also called VHH antibody YGI-1F4; not shown: FLAG tag and His tag from vector pMEK222; not clear whe) VHH: EVQLVESGGGLVQAGGSLRLSCGASGRTFSNYAMGWFRQAPGKEREFVAAINWSGDKTDYADSVKGRFTISRDNVKNFVALQMNSLKPEDTAVYYCATEGGFPQFGSNLKRTSFGLWGQGTQVTVSS | binds
2 | YGI-1H3 (VHH, Llama VHH expressed in E. coli from pMEK222 (FLAG tag and His tag), purified on Co resin; also called VHH antibody YGI-1H3; not shown: FLAG tag and His tag from vector pMEK222; not clear whe) VHH: EVQLVESGGGLVQAGGSLRLSCVVSGRSFSSLAMGWFRQAPGNQREFVAAISWSGGSSYYGDSVKGRFTISRDDAKNTVYLQMDSLKPEDTADYYCATEIVPKYDTAAYYKSQGAFGSWGQGTQVTVSS | binds
3 | YGI-1B6 (VHH, Llama VHH expressed in E. coli from pMEK222 (FLAG tag and His tag), purified on Co resin; also called VHH antibody YGI-1B6; not shown: FLAG tag and His tag from vector pMEK222; not clear whe) VHH: EVQLVESGGGLVQAGGSLRLSCAASGRTFSNYFMGWFRQAPGKEREFVAAISWSGGSTYYTDSVKGRFTISRDNAKNTMYLQMNTLKPEDTAVYYCAAEKASLSGPSYGLGLDFSRYDYWGQGTQVTVSS | binds
4 | YGI-1C5 (VHH, Llama VHH expressed in E. coli from pMEK222 (FLAG tag and His tag), purified on Co resin; also called VHH antibody YGI-1C5; not shown: FLAG tag and His tag from vector pMEK222; not clear whe) VHH: EVQLVESGGGLVQTGGSLRLSCAASGLTFSNYAMGWFRQAPGKEREFVATINWSSSRTIYADSVKGRFTISREDAKNTVYLQMNSLKPEDTAVYYCAAEGGAPRWTTGTRRNDYRYWGQGTQVTVSS | binds
5 | YGI-1E10 (VHH, Llama VHH expressed in E. coli from pMEK222 (FLAG tag and His tag), purified on Co resin; also called VHH antibody YGI-1E10; not shown: FLAG tag and His tag from vector pMEK222; not clear whe) VHH: EVQLVESGGGLVQAGGSLRLSCTAPKSIASFNSVGWYRQAPGKQRELVATITRSRTTNYADSARGRFTISRDNTKNMMFLQMNSLKPEDTAVYYCNARDIVPVFQTYWGQGTRVTVSS | binds
